Experimental data as given in paper PMC11852706, “Discovery of three novel neutralizing antibody epitopes on the human astrovirus capsid spike and mechanistic insights into virus neutralization” (Journal of Virology, 2025).

Assays:
[1] = target: HAstV1 capsid spike, biotinylated (human astrovirus 1 (HAstV1)) (UniProt O12792); assay: BLI; competition: biotinylated HAstV1 spike (0.5 ug/mL) on streptavidin biosensors, saturated with 150 nM Fab 3H4 or 250 nM Fab 3B4 for 600 s, then dipped into 2 uM FcRn for 300 s; Octet Kinetics Buffer; FcRn shift normalised to FcRn on spike without Fab (100%) and to self-Fab control (0%); triplicate
[2] = target: T1, HAstV1 capsid spike, histidine-tagged (Human astrovirus 1 (HAstV1), GenBank …); assay: BLI; histidine-tagged HAstV1 spike (0.5 ug/mL) loaded on Anti-Penta-His (HIS1K) biosensors; Fab in solution (3H4: 2.5, 5, 10, 20 nM; 3B4: 20, 40, 80, 160 nM); Octet Kinetics Buffer (PBS pH 7.4 + 0.1% BSA + 0.02% Tween 20); association 180 s, dissociation 600 s; global 1:1 fit; average of three replicates; conditions: both partners purified
T1 construct: also called HAstV1 spike; histidine-tagged HAstV1 spike
T1 chain: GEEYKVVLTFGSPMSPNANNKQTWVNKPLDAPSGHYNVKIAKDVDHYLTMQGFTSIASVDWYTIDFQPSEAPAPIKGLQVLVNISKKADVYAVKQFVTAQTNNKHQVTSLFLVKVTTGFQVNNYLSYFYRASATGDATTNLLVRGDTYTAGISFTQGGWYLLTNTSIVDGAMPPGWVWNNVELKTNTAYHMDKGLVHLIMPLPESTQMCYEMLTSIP

Row | Binder | FcRn binding (%) left on spike saturated with the Fab [1] | Kd [2]
1 | Fab 3H4 (Fab, V domains shown, source: CHO-S, electroporated, purified from supernatant (StrepTrap HP)) VH: QVQLKESGPGLVAPSQSLSISCTVSGFSLTTFGIHWIRQPPGKGLEWLGVIWAAGTTNYNSTLKSRLTITKDNSRSQVFLKMNSLQTYDTAIYYCVREDYDYFFGLDYWGQGTSVTVSS VL: QAVVTQESALTTSPGETVTLTCRSSTGAVTTSNYASWVQEKPDHLFIGLIGGTNNRAPGVPARFSGSLIGDKAALTITGAQTDDEAIYFCALWFSNHWVFGGGTKLTVL | 4% | 0.49 nM
2 | Fab 3B4 (Fab, V domains shown, source: CHO-S, electroporated, purified from supernatant (StrepTrap HP)) VH: QVQLHQPGAELVKPGASVNLSCKASGYTFTSYWMHWVKQRPGQGLEWIGEINPSSGRANYNEKFKNKATLTVDKSSITAYMHLSSLTSEDSAVYYCHWDYYAMDYWGQGTSVTVSS VL: DIVLTQSPATLSVTPGDSVSLSCRASQSISNNLHWYQQKSHESPRLLFKSASQSISGIPSRFSGSGSGTDFTLSINSVETEDFGMYFCQQTNSWPLTFGTGTKLDLK | 40% | 11.8 nM
